According to publication doi:10.1101/2025.06.11.659033 (bioRxiv, 2025):
Read-outs that look alike come from different tables or passages of the source.

Tests used:
[1] = target: the molecule itself; assay: SEC
[2] = target: the molecule itself; assay: SEC; remark: listed apart in the source

B1: HDPpf-N4 (Δ37N, 3 C-terminal residues deleted) (domain or fragment, Plasmodium falciparum, UniProt Q8IL04 38-202, looked up)
chain: VYWCFEHKPVKRTIINLIYSHNELKIFSNLLNHPTVGSSLIHELSLDGPYTAFFPSNEAMQLINIESFNKLYNDENKLSEFVLNHVTKEYWLYRDLYGSSYQPWLMYNEKREAPEKLRNLLNNDLIVKIEGEFKHCNHSIYLNGSKIIRPNMKCHNGVVHIVDKP
With B1 the “stoichiometry N” value [1] was 2.

B2: HDPpf-C10 (Δ44N, C-terminal 6His) (domain or fragment, Plasmodium falciparum, UniProt Q8IL04 45-205, looked up)
chain: KPVKRTIINLIYSHNELKIFSNLLNHPTVGSSLIHELSLDGPYTAFFPSNEAMQLINIESFNKLYNDENKLSEFVLNHVTKEYWLYRDLYGSSYQPWLMYNEKREAPEKLRNLLNNDLIVKIEGEFKHCNHSIYLNGSKIIRPNMKCHNGVVHIVDKPIIF
For B2, the “stoichiometry N” value [2] was 2.
